From patent publication US20110294748A1 (Janssen / Centocor, published 2011)

B1: peptide-Alkaline phosphatase-His6 fusion protein of clone 17 (other)
chain: DDIDEFLHQLHNLVNNVHTPEMPVLENRAAQGDITTPGGARRLTGDQTAALRDSLSDKPAKNIILLIGDGMGDSEITAARNYAEGAGGFFKGIDALPLTGQYTHYALNKKTGKPDYVTDSAASATAWSTGVKTYNGALGVDIHEKDHPTILEMAKAAGLATGNVSTAELQGATPAALVAHVTSRKCYGPSATSEKCPGNALEKGGKGSITEQLLNARADVTLGGGAKTFAETATAGEWQGKTLREQAQTRGYQLVSDAASLNSVTEANQQKPLLGLFADGNMPVRWLGPKATYHGNIDKPAVTCTPNPQRNDSVPTLAQMTDKAIELLSKNEKGFFLQVEGASIDKQNHAANPCGQIGETVDLDEAVQRALEFAKKEGNTLVIVTADHAHASQIVAPDTKAPGLTQALNTKDGAVMVMSYGNSEEDSQEHTGSQLRIAAYGPHAANVVGLTDQTDLFYTMKAALGLKVPGGSGGGSGGGSGGGSGTPEMPVLENRAAQGDITTPGGARRLTGDQTAALRDSLSDKPAKNIILLIGDGMGDSEITAARNYAEGAGGFFKGIDALPLTGQYTHYALNKKTGKPDYVTDSAASATAWSTGVKTYNGALGVDIHEKDHPTILEMAKAAGLATGNVSTAELQGATPAALVAHVTSRKCYGPSATSEKCPGNALEKGGKGSITEQLLNARADVTLGGGAKTFAETATAGEWQGKTLREQAQTRGYQLVSDAASLNSVTEANQQKPLLGLFADGNMPVRWLGPKATYHGNIDKPAVTCTPNPQRNDSVPTLAQMTDKAIELLSKNEKGFFLQVEGASIDKQNHAANPCGQIGETVDLDEAVQRALEFAKKEGNTLVIVTADHAHASQIVAPDTKAPGLTQALNTKDGAVMVMSYGNSEEDSQEHTGSQLRIAAYGPHAANVVGLTDQTDLFYTMKAALGLKVPGNSHHHHHH
notes: Tested as bacterial culture supernatant; also called peptide-AP fusion clone 17
B2: peptide-Alkaline phosphatase-His6 fusion protein of clone 14 (other)
chain: VECDTPSITFSPGLEALFWNTCSPTPEMPVLENRAAQGDITTPGGARRLTGDQTAALRDSLSDKPAKNIILLIGDGMGDSEITAARNYAEGAGGFFKGIDALPLTGQYTHYALNKKTGKPDYVTDSAASATAWSTGVKTYNGALGVDIHEKDHPTILEMAKAAGLATGNVSTAELQGATPAALVAHVTSRKCYGPSATSEKCPGNALEKGGKGSITEQLLNARADVTLGGGAKTFAETATAGEWQGKTLREQAQTRGYQLVSDAASLNSVTEANQQKPLLGLFADGNMPVRWLGPKATYHGNIDKPAVTCTPNPQRNDSVPTLAQMTDKAIELLSKNEKGFFLQVEGASIDKQNHAANPCGQIGETVDLDEAVQRALEFAKKEGNTLVIVTADHAHASQIVAPDTKAPGLTQALNTKDGAVMVMSYGNSEEDSQEHTGSQLRIAAYGPHAANVVGLTDQTDLFYTMKAALGLKVPGGSGGGSGGGSGGGSGTPEMPVLENRAAQGDITTPGGARRLTGDQTAALRDSLSDKPAKNIILLIGDGMGDSEITAARNYAEGAGGFFKGIDALPLTGQYTHYALNKKTGKPDYVTDSAASATAWSTGVKTYNGALGVDIHEKDHPTILEMAKAAGLATGNVSTAELQGATPAALVAHVTSRKCYGPSATSEKCPGNALEKGGKGSITEQLLNARADVTLGGGAKTFAETATAGEWQGKTLREQAQTRGYQLVSDAASLNSVTEANQQKPLLGLFADGNMPVRWLGPKATYHGNIDKPAVTCTPNPQRNDSVPTLAQMTDKAIELLSKNEKGFFLQVEGASIDKQNHAANPCGQIGETVDLDEAVQRALEFAKKEGNTLVIVTADHAHASQIVAPDTKAPGLTQALNTKDGAVMVMSYGNSEEDSQEHTGSQLRIAAYGPHAANVVGLTDQTDLFYTMKAALGLKVPGNSHHHHHH
notes: Tested as bacterial culture supernatant; also called peptide-AP fusion clone 14
B3: peptide-Alkaline phosphatase-His6 fusion protein of clone 8 (other)
chain: PVCPSFCYDQYVCPTTPEMPVLENRAAQGDITTPGGARRLTGDQTAALRDSLSDKPAKNIILLIGDGMGDSEITAARNYAEGAGGFFKGIDALPLTGQYTHYALNKKTGKPDYVTDSAASATAWSTGVKTYNGALGVDIHEKDHPTILEMAKAAGLATGNVSTAELQGATPAALVAHVTSRKCYGPSATSEKCPGNALEKGGKGSITEQLLNARADVTLGGGAKTFAETATAGEWQGKTLREQAQTRGYQLVSDAASLNSVTEANQQKPLLGLFADGNMPVRWLGPKATYHGNIDKPAVTCTPNPQRNDSVPTLAQMTDKAIELLSKNEKGFFLQVEGASIDKQNHAANPCGQIGETVDLDEAVQRALEFAKKEGNTLVIVTADHAHASQIVAPDTKAPGLTQALNTKDGAVMVMSYGNSEEDSQEHTGSQLRIAAYGPHAANVVGLTDQTDLFYTMKAALGLKVPGGSGGGSGGGSGGGSGTPEMPVLENRAAQGDITTPGGARRLTGDQTAALRDSLSDKPAKNIILLIGDGMGDSEITAARNYAEGAGGFFKGIDALPLTGQYTHYALNKKTGKPDYVTDSAASATAWSTGVKTYNGALGVDIHEKDHPTILEMAKAAGLATGNVSTAELQGATPAALVAHVTSRKCYGPSATSEKCPGNALEKGGKGSITEQLLNARADVTLGGGAKTFAETATAGEWQGKTLREQAQTRGYQLVSDAASLNSVTEANQQKPLLGLFADGNMPVRWLGPKATYHGNIDKPAVTCTPNPQRNDSVPTLAQMTDKAIELLSKNEKGFFLQVEGASIDKQNHAANPCGQIGETVDLDEAVQRALEFAKKEGNTLVIVTADHAHASQIVAPDTKAPGLTQALNTKDGAVMVMSYGNSEEDSQEHTGSQLRIAAYGPHAANVVGLTDQTDLFYTMKAALGLKVPGNSHHHHHH
notes: Tested as bacterial culture supernatant; also called peptide-AP fusion clone 8
B4: peptide-Alkaline phosphatase-His6 fusion protein of clone 16 (other)
chain: AGCPSPMPPVDPGFYSAIVQLCRETPEMPVLENRAAQGDITTPGGARRLTGDQTAALRDSLSDKPAKNIILLIGDGMGDSEITAARNYAEGAGGFFKGIDALPLTGQYTHYALNKKTGKPDYVTDSAASATAWSTGVKTYNGALGVDIHEKDHPTILEMAKAAGLATGNVSTAELQGATPAALVAHVTSRKCYGPSATSEKCPGNALEKGGKGSITEQLLNARADVTLGGGAKTFAETATAGEWQGKTLREQAQTRGYQLVSDAASLNSVTEANQQKPLLGLFADGNMPVRWLGPKATYHGNIDKPAVTCTPNPQRNDSVPTLAQMTDKAIELLSKNEKGFFLQVEGASIDKQNHAANPCGQIGETVDLDEAVQRALEFAKKEGNTLVIVTADHAHASQIVAPDTKAPGLTQALNTKDGAVMVMSYGNSEEDSQEHTGSQLRIAAYGPHAANVVGLTDQTDLFYTMKAALGLKVPGGSGGGSGGGSGGGSGTPEMPVLENRAAQGDITTPGGARRLTGDQTAALRDSLSDKPAKNIILLIGDGMGDSEITAARNYAEGAGGFFKGIDALPLTGQYTHYALNKKTGKPDYVTDSAASATAWSTGVKTYNGALGVDIHEKDHPTILEMAKAAGLATGNVSTAELQGATPAALVAHVTSRKCYGPSATSEKCPGNALEKGGKGSITEQLLNARADVTLGGGAKTFAETATAGEWQGKTLREQAQTRGYQLVSDAASLNSVTEANQQKPLLGLFADGNMPVRWLGPKATYHGNIDKPAVTCTPNPQRNDSVPTLAQMTDKAIELLSKNEKGFFLQVEGASIDKQNHAANPCGQIGETVDLDEAVQRALEFAKKEGNTLVIVTADHAHASQIVAPDTKAPGLTQALNTKDGAVMVMSYGNSEEDSQEHTGSQLRIAAYGPHAANVVGLTDQTDLFYTMKAALGLKVPGNSHHHHHH
notes: Tested as bacterial culture supernatant; also called peptide-AP fusion clone 16
B5: peptide-Alkaline phosphatase-His6 fusion protein of clone 11 (other)
chain: HTCFYPTLMPPELCFDTPEMPVLENRAAQGDITTPGGARRLTGDQTAALRDSLSDKPAKNIILLIGDGMGDSEITAARNYAEGAGGFFKGIDALPLTGQYTHYALNKKTGKPDYVTDSAASATAWSTGVKTYNGALGVDIHEKDHPTILEMAKAAGLATGNVSTAELQGATPAALVAHVTSRKCYGPSATSEKCPGNALEKGGKGSITEQLLNARADVTLGGGAKTFAETATAGEWQGKTLREQAQTRGYQLVSDAASLNSVTEANQQKPLLGLFADGNMPVRWLGPKATYHGNIDKPAVTCTPNPQRNDSVPTLAQMTDKAIELLSKNEKGFFLQVEGASIDKQNHAANPCGQIGETVDLDEAVQRALEFAKKEGNTLVIVTADHAHASQIVAPDTKAPGLTQALNTKDGAVMVMSYGNSEEDSQEHTGSQLRIAAYGPHAANVVGLTDQTDLFYTMKAALGLKVPGGSGGGSGGGSGGGSGTPEMPVLENRAAQGDITTPGGARRLTGDQTAALRDSLSDKPAKNIILLIGDGMGDSEITAARNYAEGAGGFFKGIDALPLTGQYTHYALNKKTGKPDYVTDSAASATAWSTGVKTYNGALGVDIHEKDHPTILEMAKAAGLATGNVSTAELQGATPAALVAHVTSRKCYGPSATSEKCPGNALEKGGKGSITEQLLNARADVTLGGGAKTFAETATAGEWQGKTLREQAQTRGYQLVSDAASLNSVTEANQQKPLLGLFADGNMPVRWLGPKATYHGNIDKPAVTCTPNPQRNDSVPTLAQMTDKAIELLSKNEKGFFLQVEGASIDKQNHAANPCGQIGETVDLDEAVQRALEFAKKEGNTLVIVTADHAHASQIVAPDTKAPGLTQALNTKDGAVMVMSYGNSEEDSQEHTGSQLRIAAYGPHAANVVGLTDQTDLFYTMKAALGLKVPGNSHHHHHH
notes: Tested as bacterial culture supernatant; also called peptide-AP fusion clone 11
B6: peptide-Alkaline phosphatase-His6 fusion protein of clone 12 (other)
chain: SNCPPLDMRLTELCVMTPEMPVLENRAAQGDITTPGGARRLTGDQTAALRDSLSDKPAKNIILLIGDGMGDSEITAARNYAEGAGGFFKGIDALPLTGQYTHYALNKKTGKPDYVTDSAASATAWSTGVKTYNGALGVDIHEKDHPTILEMAKAAGLATGNVSTAELQGATPAALVAHVTSRKCYGPSATSEKCPGNALEKGGKGSITEQLLNARADVTLGGGAKTFAETATAGEWQGKTLREQAQTRGYQLVSDAASLNSVTEANQQKPLLGLFADGNMPVRWLGPKATYHGNIDKPAVTCTPNPQRNDSVPTLAQMTDKAIELLSKNEKGFFLQVEGASIDKQNHAANPCGQIGETVDLDEAVQRALEFAKKEGNTLVIVTADHAHASQIVAPDTKAPGLTQALNTKDGAVMVMSYGNSEEDSQEHTGSQLRIAAYGPHAANVVGLTDQTDLFYTMKAALGLKVPGGSGGGSGGGSGGGSGTPEMPVLENRAAQGDITTPGGARRLTGDQTAALRDSLSDKPAKNIILLIGDGMGDSEITAARNYAEGAGGFFKGIDALPLTGQYTHYALNKKTGKPDYVTDSAASATAWSTGVKTYNGALGVDIHEKDHPTILEMAKAAGLATGNVSTAELQGATPAALVAHVTSRKCYGPSATSEKCPGNALEKGGKGSITEQLLNARADVTLGGGAKTFAETATAGEWQGKTLREQAQTRGYQLVSDAASLNSVTEANQQKPLLGLFADGNMPVRWLGPKATYHGNIDKPAVTCTPNPQRNDSVPTLAQMTDKAIELLSKNEKGFFLQVEGASIDKQNHAANPCGQIGETVDLDEAVQRALEFAKKEGNTLVIVTADHAHASQIVAPDTKAPGLTQALNTKDGAVMVMSYGNSEEDSQEHTGSQLRIAAYGPHAANVVGLTDQTDLFYTMKAALGLKVPGNSHHHHHH
notes: Tested as bacterial culture supernatant; also called peptide-AP fusion clone 12

Molecular target: T1, soluble IGF1R (sIGF1R), extracellular domain of human insulin-like growth factor 1 receptor, carboxy-terminal … (human, UniProt P08069 31-932)
T1 construct: Bought from R&D Systems; GenBank NP-000866 is printed for the whole receptor; also called IFG1R
Assay: ELISA, culture supernatant on 2 µg/ml coated sIGF1R, Attophos detection
Description: The binding of purified peptide-AP fusion proteins to sIGF1R was assessed using ELISA against immobilized sIGF1R. Briefly, bacteria transformed with each peptide-AP fusion expression vector were grown overnight and the following day the cultures were clarified by centrifugation at 4,500 rpm, 4° C. The supernatants were collected and 75 μl of each supernatant was assayed for binding to 2 μg/ml sIGF1R immobilized on ELISA plates. The bound peptides were detected using the Attophos Substrate (Roche, Indianapolis, Ind.) following the manufacturer's recommendation and read using a Molecular Devices M5 plate reader.

Binding result, binds:
B1
B2
B3
B4
B5
B6
